Reference: patent publication US20250215104A1 (WALDEN BIOSCIENCES, published 2025)

Experiments:
[1] = target: T1, human soluble urokinase plasminogen activator receptor (hsuPAR) (human, UniProt Q03405 23-303, limits assumed); assay: BLI (Octet) off-rate screen of scFv
T1 construct: also called human suPAR; rhuPAR-His

[2] = target: T2, cynomolgus soluble urokinase plasminogen activator receptor (cynomolgus suPAR) (cynomolgus, UniProt Q9GK78 23-303, limits assumed); assay: BLI (Octet) off-rate screen of scFv
T2 construct: also called cynomolgus uPAR; cynoPLAUR-His
T2 sequence (Q9GK78 23-303 limits assumed): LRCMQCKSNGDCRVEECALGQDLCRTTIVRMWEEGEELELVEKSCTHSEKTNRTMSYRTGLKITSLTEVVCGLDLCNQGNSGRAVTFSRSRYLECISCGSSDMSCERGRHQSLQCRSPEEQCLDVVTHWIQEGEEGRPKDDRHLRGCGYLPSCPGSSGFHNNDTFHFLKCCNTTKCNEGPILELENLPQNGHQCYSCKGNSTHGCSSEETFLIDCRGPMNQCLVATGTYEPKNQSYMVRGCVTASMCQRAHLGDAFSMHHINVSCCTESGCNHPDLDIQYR

T1 sequence (Q03405 23-303 limits assumed): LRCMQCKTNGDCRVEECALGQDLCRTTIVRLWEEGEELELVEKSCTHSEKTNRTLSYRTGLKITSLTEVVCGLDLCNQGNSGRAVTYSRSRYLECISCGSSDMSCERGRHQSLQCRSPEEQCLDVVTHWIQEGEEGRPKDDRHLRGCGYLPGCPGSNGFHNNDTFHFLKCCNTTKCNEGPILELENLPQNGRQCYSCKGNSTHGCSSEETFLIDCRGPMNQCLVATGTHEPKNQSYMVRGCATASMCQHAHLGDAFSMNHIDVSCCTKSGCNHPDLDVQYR

Binder | koff [1] | koff [2]
suPAR_DB01_F11 (scFv, V domains shown, Screened as scFv) VH: QVQLVQSGAEVKKPGASVKVSCKASGYTFTSYYMHWVRQAPGQGLEWMGWIDHEGGNTSYAQKFQGRVTMTRDTSTSTVYMELSSLRSEDTAVYYCARGYDVDWFVYWGQGTLVTVSS VL: DIQMTQSPSSLSASVGDRVTITCRASSSVSYMYWYQQKPGKAPKLLIYRTSNLASGVPSRFSGSGSGTDFTLTISSLQPEDFATYYCQQYHSYPPTFGGGTKVEIK | 0.00293 s⁻¹ | 9.02e-05 s⁻¹
suPAR_DB01_G12 (scFv, V domains shown, Screened as scFv) VH: QVQLVQSGAEVKKPGASVKVSCKASGDTFSNYYMHWVRQAPGQGLEWMGWIDHENGNTIYDQKFQGRVTMTRDTSTSTVYMELSSLRSEDTAVYYCARGYDVDWFVYWGQGTLVTVSS VL: DIQMTQSPSSLSASVGDRVTITCSARSSISYMYWYQQKPGKAPKLLIYRTSNLASGVPSRFSGSGSGTDFTLTISSLQPEDFATYYCQQYHSYPPTFGGGTKVEIK | 0.00466 s⁻¹ | 0.000247 s⁻¹
suPAR_DB01_H03 (scFv, V domains shown, Screened as scFv) VH: QVQLVQSGAEVKKPGASVKVSCKASGDTITNYYMHWVRQAPGQGLEWMGWIDTNSGGTQYAQKFQGRVTMTRDTSTSTVYMELSSLRSEDTAVYYCARGYDVDWFVYWGQGTLVTVSS VL: DIQMTQSPSSLSASVGDRVTITCSARSSVSYMYWYQQKPGKAPKLLIYRTSNLASGVPSRFSGSGSGTDFTLTISSLQPEDFATYYCQQYHSYPPTFGGGTKVEIK | 0.001 s⁻¹ | 0.000677 s⁻¹
suPAR_DB01_H01 (scFv, V domains shown, Screened as scFv) VH: QVQLVQSGAEVKKPGASVKVSCKASGDTFTSYYMHWVRQAPGQGLEWMGWIDPENGNTIYDQKFQGRVTMTRDTSTSTVYMELSSLRSEDTAVYYCARGYDVDWFVYWGQGTLVTVSS VL: DIQMTQSPSSLSASVGDRVTITCSARSSVSYMYWYQQKPGKAPKLLIYRTSNLASGVPSRFSGSGSGTDFTLTISSLQPEDFATYYCQQYHSYPPTFGGGTKVEIK | 0.00454 s⁻¹ | 0.000122 s⁻¹
suPAR_DB01_H06 (scFv, V domains shown, Screened as scFv) VH: QVQLVQSGAEVKKPGASVKVSCKASGFNIKDYYMHWVRQAPGQGLEWMGWIDPENGNTIYDQKFQGRVTMTRDTSTSTVYMELSSLRSEDTAVYYCARGYDVDWFVYWGQGTLVTVSS VL: DIQMTQSPSSLSASVGDRVTITCSARQSISYMYWYQQKPGKAPKLLIYRTSNLASGVPSRFSGSGSGTDFTLTISSLQPEDFATYYCQQYHSYPPTFGGGTKVEIK | 0.0052 s⁻¹ | 0.000129 s⁻¹
suPAR_DB01_G09 (scFv, V domains shown, Screened as scFv) VH: QVQLVQSGAEVKKPGASVKVSCKASGHTLNSYYMHWVRQAPGQGLEWMGWIDPENGNTIYAQKFQGRVTMTRDTSTSTVYMELSSLRSEDTAVYYCARGYDVDWFVYWGQGTLVTVSS VL: DIQMTQSPSSLSASVGDRVTITCSARQSVSYMYWYQQKPGKAPKLLIYRTSNLASGVPSRFSGSGSGTDFTLTISSLQPEDFATYYCQQYHSYPPTFGGGTKVEIK | 0.00433 s⁻¹ | 0.000347 s⁻¹
suPAR_DB01_G08 (scFv, V domains shown, Screened as scFv) VH: QVQLVQSGAEVKKPGASVKVSCKASGYSFTNYYMHWVRQAPGQGLEWMGWIDHENGNTSYAQKFQGRVTMTRDTSTSTVYMELSSLRSEDTAVYYCARGYDVDWFVYWGQGTLVTVSS VL: DIQMTQSPSSLSASVGDRVTITCSARQSVSYMYWYQQKPGKAPKLLIYRTSSLASGVPSRFSGSGSGTDFTLTISSLQPEDFATYYCQQYHSYPPTFGGGTKVEIK | 0.00309 s⁻¹ | 0.000104 s⁻¹
suPAR_DB01_H05 (scFv, V domains shown, Screened as scFv) VH: QVQLVQSGAEVKKPGASVKVSCKASGYTFTGNYVHWVRQAPGQGLEWMGWIDHENGNTIYDQKFQGRVTMTRDTSTSTVYMELSSLRSEDTAVYYCARGYDVDWFVYWGQGTLVTVSS VL: DIQMTQSPSSLSASVGDRVTITCSARSSVSYMYWYQQKPGKAPKLLIYRTSNLASGVPSRFSGSGSGTDFTLTISSLQPEDFATYYCQQYHSYPPTFGGGTKVEIK | 0.00152 s⁻¹ | 0.000432 s⁻¹
suPAR_DB01_H04 (scFv, V domains shown, Screened as scFv) VH: QVQLVQSGAEVKKPGASVKVSCKASGYTFTNYYMHWVRQAPGQGLEWMGWIDPNSGGTNYAQKFQGRVTMTRDTSTSTVYMELSSLRSEDTAVYYCARGYDVDWFVYWGQGTLVTVSS VL: DIQMTQSPSSLSASVGDRVTITCSARSSVSYMYWYQQKPGKAPKLLIYRTSNLASGVPSRFSGSGSGTDFTLTISSLQPEDFATYYCQQYHSYPPTFGGGTKVEIK | 0.00242 s⁻¹ | 0.000225 s⁻¹
suPAR_DB01_G02 (scFv, V domains shown, Screened as scFv) VH: QVQLVQSGAEVKKPGASVKVSCKASGYSFTDYYMHWVRQAPGQGLEWMGWIDHENGNTIYAQKFQGRVTMTRDTSTSTVYMELSSLRSEDTAVYYCARGYDVDWFVYWGQGTLVTVSS VL: DIQMTQSPSSLSASVGDRVTITCSARSSVSYMYWYQQKPGKAPKLLIYRTSNLASGVPSRFSGSGSGTDFTLTISSLQPEDFATYYCQQYHSYPPTFGGGTKVEIK | 0.00245 s⁻¹ | 0.000149 s⁻¹
suPAR_DB01_G10 (scFv, V domains shown, Screened as scFv) VH: QVQLVQSGAEVKKPGASVKVSCKASGYTFTNYYMHWVRQAPGQGLEWMGWIDHEGGNTSYAQKFQGRVTMTRDTSTSTVYMELSSLRSEDTAVYYCARGYDVDWFVYWGQGTLVTVSS VL: DIQMTQSPSSLSASVGDRVTITCSARSSVSYMYWYQQKPGKAPKLLIYRTSNLASGVPSRFSGSGSGTDFTLTISSLQPEDFATYYCQQYHSYPPTFGGGTKVEIK | 0.00343 s⁻¹ | 0.000197 s⁻¹
suPAR_DB01_G07 (scFv, V domains shown, Screened as scFv) VH: QVQLVQSGAEVKKPGASVKVSCKASGNTFTSYYMHWVRQAPGQGLEWMGWIDPENGNTIYDQKFQGRVTMTRDTSTSTVYMELSSLRSEDTAVYYCARGYDVDWFVYWGQGTLVTVSS VL: DIQMTQSPSSLSASVGDRVTITCSARSSVSYMYWYQQKPGKAPKLLIYRTSNLASGVPSRFSGSGSGTDFTLTISSLQPEDFATYYCQQYHSYPPTFGGGTKVEIK | 0.00407 s⁻¹ | 1.73e-05 s⁻¹
suPAR_DB01_G01 (scFv, V domains shown, Screened as scFv) VH: QVQLVQSGAEVKKPGASVKVSCKASGDTFSSYYMHWVRQAPGQGLEWMGWIDHENGNTIYDQKFQGRVTMTRDTSTSTVYMELSSLRSEDTAVYYCARGYDVDWFVYWGQGTLVTVSS VL: DIQMTQSPSSLSASVGDRVTITCSARSSVSYMYWYQQKPGKAPKLLIYRTSNLASGVPSRFSGSGSGTDFTLTISSLQPEDFATYYCQQYHSYPPTFGGGTKVEIK | 0.00429 s⁻¹ | 0.000152 s⁻¹
suPAR_DB01_F12 (scFv, V domains shown, Screened as scFv) VH: QVQLVQSGAEVKKPGASVKVSCKASGFNIKDYYIHWVRQAPGQGLEWMGWIDPENGSTIYDQKFQGRVTMTRDTSTSTVYMELSSLRSEDTAVYYCARGYDVDWFVYWGQGTLVTVSS VL: DIQMTQSPSSLSASVGDRVTITCRARQSVSYMYWYQQKPGKAPKLLIYRTSNLASGVPSRFSGSGSGTDFTLTISSLQPEDFATYYCQQYHSYPPTFGGGTKVEIK | 0.00282 s⁻¹ | 0.000192 s⁻¹
suPAR_DB01_G04 (scFv, V domains shown, Screened as scFv) VH: QVQLVQSGAEVKKPGASVKVSCKASGYTLSGYYMHWVRQAPGQGLEWMGWIDPNSGGTKYAQKFQGRVTMTRDTSTSTVYMELSSLRSEDTAVYYCARGYDVDWFVYWGQGTLVTVSS VL: DIQMTQSPSSLSASVGDRVTITCRARQSVSYMYWYQQKPGKAPKLLIYRTSNLASGVPSRFSGSGSGTDFTLTISSLQPEDFATYYCQQYHSYPPTFGGGTKVEIK | 0.00364 s⁻¹ | 7.99e-05 s⁻¹
